{"source": "patent US10251942B2", "about": "“Immunity-inducing agent” (TORAY INDUSTRIES, INC., priority 2009, dated 2019)", "molecules": {"B1": {"name": "recombinant murine PDS5A protein: full-length murine PDS5A (SEQ ID NO:6) expressed in E. coli, His tag cleaved; given mixed with poly I:C (protein, listed as Mus musculus)", "chain": "MDFTQPKPATALCGVVSADGKIAYPPGVKEITDKITTDEMIKRLKMVVKTFMDMDQDSEDEKQQYLPLALHLASEFFLRNPNKDVRLLVACCLADIFRIYAPEAPYTSHDKLKDIFLFITRQLKGLEDTKSPQFNRYFYLLENLAWVKSYNICFELEDCNEIFIQLFRTLFSVINNSHNTKVQMHMLDLMSSIIMEGDGVTQELLDSILINLIPAHKNLNKQSFDLAKVLLKRTVQTIEACIANFFNQVLVLGRSSVSDLSEHVFDLIQELFAIDPQLLLSVMPQLEFKLKSNDGEERLAVVRLLAKLFGSKDSDLATQNRPLWQCFLGRFNDIHVPVRLESVKFASHCLMNHPDLAKDLTEYLKVRSHDPEEAIRHDVIVTIITAAKRDLALVNDQLLGFVRERTLDKRWRVRKEAMMGLAQLYKKYCLHGEAGKEAAEKVSWIKDKLLHIYYQNSIDDKLLVEKIFAQYLVPHNLETEERMKCLYYLYASLDPNAVKALNEMWKCQNMLRSHVRELLDLHKQPTSEANCSAMFGKLMTIAKNLPDPGKAQDFVKKFNQVLGDDEKLRSQLELLISPTCSCKQADVCVREIARKLANPKQPTNPFLEMVKFLLERIAPVHIDSEAISALVKLMNKSIEGTADDEEEGVSPDSAIRSGLELLKVLSFTHPTSFHSAETYESLLQCLRMEDDKVAEAAIQIFRNTGHKIETDLPQIRSTLIPILHQKAKRGTPHQAKQAVHCIHAIFSNKEVQLAQIFEPLSRSLNADVPEQLITPLVSLGHISMLAPDQFASPMKSVVANFIVKDLLMNDRSTGEKNGKLWSPDEEVSPEVLAKVQAIKLLVRWLLGMKNNQSKSANSTLRLLSAMLVSEGDLTEQKRISKSDMSRLRLAAGSAIMKLAQEPCYHEIITPEQFQLCALVINDECYQVRQIFAQKLHKALVKLLLPLEYMAIFALCAKDPVKERRAHARQCLLKNISIRREYIKQNPMATEKLLSLLPEYVVPYMIHLLAHDPDFTRSQDVDQLRDIKECLWFMLEVLMTKNENNSHAFMKKMAENIKLTRDAQSPDESKTNEKLYTVCDVALCVINSKSALCNADSPKDPVLPMKFFTQPEKDFCNDKSYISEETRVLLLTGKPKPTGVLGTVNKPLSATGRKPYVRSAGTETGSNINANSELSPSAGSRSREQSSEASETGVSENEENPVRIISVTPVKNIDTVKNKEINSDQSTQGNISSDRGKKRIVTAAGAENIQKPDEKVDESGPPAPSKPRRGRRPKSESQGNATKNDDLNKPVSKGRKRAAGSQESLEAGNAKAPKLQDGAKKAVPAERQIDLQR", "modifications": "mixed with poly I:C"}, "B2": {"name": "human PDS5A protein (SEQ ID NO:44): full-length human PDS5A (SEQ ID NO:44) expressed in E. coli; given mixed with Freund's incomplete adjuvant (protein, listed as Homo sapiens)", "chain": "MDFTAQPKPATALCGVVSADGKIAYPPGVKEITDKITTDEMIKRLKMVVKTFMDMDQDSEDEKQQYLPLALHLASEFFLRNPNKDVRLLVACCLADIFRIYAPEAPYTSHDKLKDIFLFITRQLKGLEDTKSPQFNRYFYLLENLAWVKSYNICFELEDCNEIFIQLFRTLFSVINNSHNKKVQMHMLDLMSSIIMEGDGVTQELLDSILINLIPAHKNLNKQSFDLAKVLLKRTVQTIEACIANFFNQVLVLGRSSVSDLSEHVFDLIQELFAIDPHLLLSVMPQLEFKLKSNDGEERLAVVRLLAKLFGSKDSDLATQNRPLWQCFLGRFNDIHVPVRLESVKFASHCLMNHPDLAKDLTEYLKVRSHDPEEAIRHDVIVTIITAAKRDLALVNDQLLGFVRERTLDKRWRVRKEAMMGLAQLYKKYCLHGEAGKEAAEKVSWIKDKLLHIYYQNSIDDKLLVEKIFAQYLVPHNLETEERMKCLYYLYASLDPNAVKALNEMWKCQNMLRSHVRELLDLHKQPTSEANCSAMFGKLMTIAKNLPDPGKAQDFVKKFNQVLGDDEKLRSQLELLISPTCSCKQADICVREIARKLANPKQPTNPFLEMVKFLLERIAPVHIDSEAISALVKLMNKSIEGTADDEEEGVSPDTAIRSGLELLKVLSFTHPTSFHSAETYESLLQCLRMEDDKVAEAAIQIFRNTGHKIETDLPQIRSTLIPILHQKAKRGTPHQAKQAVHCIHAIFTNKEVQLAQIFEPLSRSLNADVPEQLITPLVSLGHISMLAPDQFASPMKSVVANFIVKDLLMNDRSTGEKNGKLWSPDEEVSPEVLAKVQAIKLLVRWLLGMKNNQSKSANSTLRLLSAMLVSEGDLTEQKRISKSDMSRLRLAAGSAIMKLAQEPCYHEIITPEQFQLCALVINDECYQVRQIFAQKLHKALVKLLLPLEYMAIFALCAKDPVKERRAHARQCLLKNISIRREYIKQNPMATEKLLSLLPEYVVPYMIHLLAHDPDFTRSQDVDQLRDIKECLWFMLEVLMTKNENNSHAFMKKMAENIKLTRDAQSPDESKTNEKLYTVCDVALCVINSKSALCNADSPKDPVLPMKFFTQPEKDFCNDKSYISEETRVLLLTGKPKPAGVLGAVNKPLSATGRKPYVRSTGTETGSNINVNSELNPSTGNRSREQSSEAAETGVSENEENPVRIISVTPVKNIDPVKNKEINSDQATQGNISSDRGKKRTVTAAGAENIQQKTDEKVDESGPPAPSKPRRGRRPKSESQGNATKNDDLNKPINKGRKRAAVGQESPGGLEAGNAKAPKLQDLAKKAAPAERQIDLQR", "modifications": "mixed with Freund's incomplete adjuvant"}}, "key": {"[1]": {"test_system": "colon cancer cell line CT26", "assay": "Anti-tumor effect of recombinant murine PDS5A protein in tumor-bearing mouse, therapeutic model, CT26", "format": "in vivo, Balb/c mice", "protocol": "(§1) The same experiment was carried out also for a colon cancer model. The colon cancer cell line CT26 was subcutaneously transplanted to Balb/c mice (7 weeks old, male, purchased from Japan SLC) in an amount of 1×10^6 cells. When the tumor volume reached an average of 50 to 100 mm^3 (typically 7 days after the inoculation of the tumor), the mice were randomly divided into groups each of which contains 10 individuals, and subjected to evaluation of the anti-tumor effect of the recombinant murine PDS5A protein (therapeutic model). With 100 μg (0.5 ml) of the recombinant murine PDS5A protein purified as described above, 50 μg of poly I:C was mixed to prepare a therapeutic agent for cancer, and this therapeutic agent was subcutaneously administered to the tumor-bearing mice a total of 3 times at intervals of 1 week. […] On the other hand, in the negative control group to which PBS(−) was administered and the group to which poly I:C alone (50 μg) was administered, the mean tumor volumes on Day 24 after the administration were 1449 mm^3 and 835 mm^3, respectively."}, "[2]": {"test_system": "murine neuroblastoma cell line N2a", "assay": "Anti-tumor effect of recombinant murine PDS5A protein in tumor-bearing mouse, therapeutic model, N2a", "format": "in vivo, A/J mice", "protocol": "as §1, with “murine neuroblastoma” for “same experiment was carried out also for a colon cancer model. The colon cancer”, “N2a” for “CT26”, “A/J” for “Balb/c”, “31” for “24”, “1657” for “1449”, “932” for “835”"}, "[3]": {"test_system": "murine neuroblastoma cell line N2a", "assay": "Anti-tumor effect of recombinant murine PDS5A protein, prophylactic model, N2a", "format": "in vivo, A/J mice", "protocol": "(§2) Further, a therapeutic agent for cancer wherein 100 μg (0.5 ml) of the recombinant murine PDS5A protein and 50 μg poly I:C were mixed was prepared, and subcutaneously administered to A/J mice a total of 3 times at intervals of 1 week, followed by transplantation of 1×10^6 N2a cells to the mice and evaluation of the anti-tumor effect (prophylactic model). Ten individuals were included in each group, and, as controls for comparison, a negative control group to which PBS(−) was administered and a group to which poly I:C alone (50 μg) was administered were provided. […] On the other hand, in the negative control group to which PBS(−) was administered and the group to which poly I:C alone (50 μg) was administered, the mean tumor volumes on Day 40 after the administration were 1989 mm^3 and 1843 mm^3, respectively."}, "[4]": {"test_system": "colon cancer cell line CT26", "assay": "Anti-tumor effect of recombinant murine PDS5A protein, prophylactic model, CT26", "format": "in vivo, Balb/c mice", "protocol": "as §2, with “Balb/c” for “A/J”, “CT26” for “N2a”, “31” for “40”, “1781” for “1989”, “1675” for “1843”"}, "mammary gland tumor": {"test_system": "mammary gland tumor", "assay": "Anti-tumor effect of recombinant PDS5A protein in tumor-bearing dog, mammary gland tumor", "format": "in vivo", "details": "500 μg protein with same amount of Freund's incomplete adjuvant, regional lymph node near tumor, 3 times at 1-week intervals; tumor about 500 mm^3 (dog-derived) or 1000 mm^3 (human-derived) at administration", "protocol": "The anti-tumor effect of the recombinant protein described in Example 5 below in 3 individuals of tumor-bearing patient dogs (3 individuals having a mammary gland tumor) having a tumor mass in the epidermis was evaluated. Before administration, the antibody titer against the recombinant protein in the serum of each patient dog was measured by the method described in Example 5 (3), and, as a result, an antibody titer higher than that of a healthy dog was detected.\nWith 500 μg (2.5 ml) each of the recombinant PDS5A proteins (dog-derived and human-derived) purified as described above, the same amount of Freund's incomplete adjuvant (manufactured by Wako Pure Chemical Industries, Ltd.) was mixed to prepare 2 kinds of therapeutic agents for cancer, each of which was administered to a regional lymph node in the vicinity of the tumor a total of 3 times at 1-week intervals. […] On the other hand, in the negative control group to which PBS(−) was administered, the tumor volume, which had been about 800 mm^3 at the time of administration of PBS, became 1625 mm^3 on Day 21 after the administration."}, "[5]": {"details": "Day 31 after the administration, poly I:C alone 50 μg"}}, "data": [{"molecule": "poly I:C [reference compound]", "values": [{"measurement": "mean tumor volume", "setting": "[1]; Day 24 after the administration, poly I:C alone 50 μg", "result": 835, "unit": "mm^3"}, {"measurement": "mean tumor volume", "setting": "[2]; [5]", "result": 932, "unit": "mm^3"}, {"measurement": "mean tumor volume", "setting": "[3]; Day 40 after the administration, poly I:C alone 50 μg", "result": 1843, "unit": "mm^3"}, {"measurement": "mean tumor volume", "setting": "[4]; [5]", "result": 1675, "unit": "mm^3"}]}, {"molecule": "B1", "values": [{"measurement": "tumor outcome", "setting": "[1]; Day 24, 100 μg protein mixed with 50 μg poly I:C, subcutaneous, 3 times at intervals of 1 week, PBS(−) group 1449 mm^3", "result": "complete regression of the tumor"}, {"measurement": "tumor outcome", "setting": "[2]; Day 31, 100 μg protein mixed with 50 μg poly I:C, subcutaneous, 3 times at intervals of 1 week, PBS(−) group 1657 mm^3", "result": "complete regression of the tumor"}, {"measurement": "tumor outcome", "setting": "[3]; Day 40, 100 μg protein mixed with 50 μg poly I:C, subcutaneous, 3 times at intervals of 1 week before N2a transplantation, PBS(−) group 1989 mm^3", "result": "no development of a tumor"}, {"measurement": "tumor outcome", "setting": "[4]; Day 31, 100 μg protein mixed with 50 μg poly I:C, subcutaneous, 3 times at intervals of 1 week before CT26 transplantation, PBS(−) group 1781 mm^3", "result": "no development of a tumor"}]}, {"molecule": "B2", "values": [{"measurement": "day on which complete regression of the tumor was achieved", "setting": "mammary gland tumor", "result": 21, "unit": "days"}]}]}
